In publication PMC3799444:
Changes are numbered by the printed parent chain. Names may count otherwise.

T1: Polλ Q243R (Homo sapiens, UniProt Q9UGP5 1-575, Q243R)
T1 sequence: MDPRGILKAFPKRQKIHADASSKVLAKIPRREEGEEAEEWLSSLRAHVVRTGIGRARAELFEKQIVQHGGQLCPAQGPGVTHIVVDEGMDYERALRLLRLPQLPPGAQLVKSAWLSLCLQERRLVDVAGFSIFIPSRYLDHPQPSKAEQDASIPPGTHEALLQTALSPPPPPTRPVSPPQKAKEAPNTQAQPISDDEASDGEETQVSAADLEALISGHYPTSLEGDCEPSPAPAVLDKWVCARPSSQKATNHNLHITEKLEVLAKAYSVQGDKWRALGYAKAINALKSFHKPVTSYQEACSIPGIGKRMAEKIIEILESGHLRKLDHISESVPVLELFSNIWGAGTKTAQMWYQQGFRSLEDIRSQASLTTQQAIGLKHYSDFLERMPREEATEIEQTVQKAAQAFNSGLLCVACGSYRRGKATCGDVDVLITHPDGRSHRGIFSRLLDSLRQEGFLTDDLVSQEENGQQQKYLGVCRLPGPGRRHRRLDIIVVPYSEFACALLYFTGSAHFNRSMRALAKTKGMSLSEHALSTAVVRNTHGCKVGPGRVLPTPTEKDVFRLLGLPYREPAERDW

T2: Polλ W239Y (Homo sapiens, UniProt Q9UGP5 1-575, W239Y)
T2 sequence: T1 sequence with W239Y, R243Q

B1: 1 nt gap Sp1C/T13C/DG1-P (dsDNA)
DNA 1: GATCACAGTGAGTAC
DNA 2: AGAAGTGTATCTCGTACTCACTGTGATC
DNA 3: AGATACACTTCT
modifications: 5'-phosphate on DG1-P
B2: 5 nt gap FP-P/FP-T5/FP-D (dsDNA)
DNA 1: GGCCACGCAATGTTGACGTTTTTCGACAAGACCTCAGTAT
DNA 2: GGCAGCTTGGATCTTGTCGAAAAACGTCAACATTCGCCTAGGCTTCGGCAGCATATACTGAGGTCTTGTCGAAAAACGTCAACATTGCGTGGCC
DNA 3: GCCGAAGCCTAGGCGAATGTTGACGTTTTTCGACAAGATCCAAGCTGCC
modifications: 5'-phosphate on FT-D

Experiments:
Experiment in all cases: EMSA
[1] = target: Polµ WT (Homo sapiens, UniProt Q9NP87)
Chain of Polµ WT (Q9NP87 whole entry): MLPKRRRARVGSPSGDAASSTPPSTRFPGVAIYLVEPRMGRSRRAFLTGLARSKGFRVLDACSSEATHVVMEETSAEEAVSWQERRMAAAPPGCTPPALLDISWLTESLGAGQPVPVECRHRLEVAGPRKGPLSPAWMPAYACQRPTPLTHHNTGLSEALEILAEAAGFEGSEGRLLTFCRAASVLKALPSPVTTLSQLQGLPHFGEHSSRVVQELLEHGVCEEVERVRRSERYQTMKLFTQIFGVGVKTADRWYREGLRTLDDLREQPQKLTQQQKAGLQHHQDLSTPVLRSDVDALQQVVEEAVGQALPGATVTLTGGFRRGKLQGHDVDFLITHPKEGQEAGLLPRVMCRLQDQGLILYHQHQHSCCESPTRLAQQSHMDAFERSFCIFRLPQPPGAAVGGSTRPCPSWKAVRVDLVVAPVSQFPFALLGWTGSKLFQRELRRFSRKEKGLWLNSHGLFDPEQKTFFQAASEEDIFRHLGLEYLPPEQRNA

[2] = target: T1, Polλ Q243R
[3] = target: T2, Polλ W239Y

Binder | binding result [1] | binding result [2] | binding result [3]
B1 | binds | – | –
B2 | – | binds | binds
